Results: publication PMC8589836, “A viral genome packaging ring-ATPase is a flexibly coordinated pentamer” (Nature Communications, 2021)
Where a chain is given by its changes, count along the chain named. Numbers in names are those of the source.

B1: SNAP-gp17 (SNAP-tagged full-length wild-type phage T4 large terminase gp17, labelled with SNAP-Surface 549) (enzyme, bacteriophage T4, UniProt P17312 1-610, looked up)
chain: MEQPINVLNDFHPLNEAGKILIKHPSLAERKDEDGIHWIKSQWDGKWYPEKFSDYLRLHKIVKIPNNSDKPELFQTYKDKNNKRSRYMGLPNLKRANIKTQWTREMVEEWKKCRDDIVYFAETYCAITHIDYGVIKVQLRDYQRDMLKIMSSKRMTVCNLSRQLGKTTVVAIFLAHFVCFNKDKAVGILAHKGSMSAEVLDRTKQAIELLPDFLQPGIVEWNKGSIELDNGSSIGAYASSPDAVRGNSFAMIYIDECAFIPNFHDSWLAIQPVISSGRRSKIIITTTPNGLNHFYDIWTAAVEGKSGFEPYTAIWNSVKERLYNDEDIFDDGWQWSIQTINGSSLAQFRQEHTAAFEGTSGTLISGMKLAVMDFIEVTPDDHGFHQFKKPEPDRKYIATLDCSEGRGQDYHALHIIDVTDDVWEQVGVLHSNTISHLILPDIVMRYLVEYNECPVYIELNSTGVSVAKSLYMDLEYEGVICDSYTDLGMKQTKRTKAVGCSTLKDLIEKDKLIIHHRATIQEFRTFSEKGVSWAAEEGYHDDLVMSLVIFGWLSTQSKFIDYADKDDMRLASEVFSKELQDMSDDYAPVIFVDSVHSAEYVPVSHGMSMV
modifications: SNAP-Surface 549 fluorophore (called Cy3 in the paper) on the SNAP-tag
notes: Large terminase gp17 of bacteriophage T4, full-length wild type, amplified from pET15-gp17 and inserted into pET-SNAP; Order on the chain as printed: SNAP-tag, hexa-histidine tag, full-length gp17; Added as a monomer; it assembles into the motor on the T4 head; also called WT gp17; Cy3-labeled gp17; not shown: SNAP-tag, N-terminal, kept
B2: SNAP-Q163A-gp17 (ATPase-defective Walker A P-loop mutant of SNAP-tagged gp17, labelled with SNAP-Surface 549) (enzyme, bacteriophage T4, UniProt P17312 1-610, looked up)
chain: B1 chain with Q163A
modifications: SNAP-Surface 549 fluorophore (called Cy3 in the paper) on the SNAP-tag
notes: Large terminase gp17 of bacteriophage T4, full length, with Q163A; made by overlap PCR with the SNAP-gp17 construct as template; also called Q163A mutant; not shown: SNAP-tag, N-terminal, kept

Assays:
[1] = biological target: the molecule itself; test: single-molecule TIRF fluorescence (Cy3 photobleaching step counting); motors assembled from T4 heads, Cy3-labelled SNAP-gp17 monomer (2-5 uM), 1 mM ATP-gammaS and 120-bp DNA; heads held on a PEG surface by anti-T4 polyclonal antibody; only spots with packaged Cy5-DNA counted; binomial fit of step counts (486 trajectories); room temperature
[2] = biological target: T1, WT-gp17 (His-tagged, unlabeled wild-type phage T4 gp17) (bacteriophage T4, UniProt P17312 1-610); test: single-molecule TIRF fluorescence (Cy3 photobleaching step counting); only the inactive SNAP-Q163A-gp17 labelled with Cy3, mixed with unlabeled WT gp17 and assembled on T4 heads; heads held on a PEG surface by anti-T4 antibody; Cy5-DNA and ATP flowed in, DNase I after ~10 min; Cy3 and Cy5 spots colocalised (2405 trajectories); room temperature; conditions: both partners purified
T1 construct: Large terminase gp17 of bacteriophage T4; also called unlabeled WT gp17; source: E. coli BL21 (DE3) pLysS or codon-plus BL21 (DE3) RIPL, purified (HisTrap, Superdex-200 SEC)

[3] = biological target: the molecule itself; test: not stated; assembly of the Q163A mutant into a pentamer; shown only in Supplementary Fig. 3b-g

| Binder | stoichiometry N [1] | binding result [2] | stoichiometry N [3] |
| --- | --- | --- | --- |
| B1 | 5 |  |  |
| B2 |  | binds | 5 |
